Patent EP4810521A1, “ANTI-EGFR AND -HER3 BISPECIFIC ANTIBODY-DRUG CONJUGATE AND USE THEREOF” (priority 2023, dated 2025)

B1: Duligo-LC1-NT3 (bispecific antibody, human IgG1, lambda, L234A L235A, V domains shown)
VH: EVQLVESGGGLVQPGGSLRLSCAASGFTLSGDWIHWVRQAPGKGLEWVGEISAAGGYTDYADSVKGRFTISADTSKNTAYLQMNSLRAEDTAVYYCARESRVSFEAAMDYWGQGTLVTVSS
VL: DIQMTQSPSSLSASVGDRVTITCRASQNIATDVAWYQQKPGKAPKLLIYSASFLYSGVPSRFSGSGSGTDFTLTISSLQPEDFATYYCQQSEPEPYTFGQGTKVEIKG
notes: also called Duoligo-LC1-NT3; duoligo-LC1-NT3
B2: Duligo-DXd (conjugate, chains of the INN, looked up)
VH: B1 VH
VL: DIQMTQSPSSLSASVGDRVTITCRASQNIATDVAWYQQKPGKAPKLLIYSASFLYSGVPSRFSGSGSGTDFTLTISSLQPEDFATYYCQQSEPEPYTFGQGTKVEIK
modifications: DXd payload

Key:
[1] = test system: NUGC-4 tumor-bearing mouse model; experiment: Anti-tumor effect in NUGC-4 tumor-bearing mouse model; format: in vivo, BALB/c-NUDE mice; settings: NUGC-4, 10 mg/kg single dose intraperitoneal injection, day 32
Description: In the present experiment, the BALB/c NUDE mice inoculated with NUGC-4 cells were used for determining the anti-tumor effect of the EGFR/HER3-ADCs.
The female BALB/c-NUDE mice were purchased from Beijing Vital River Laboratory Animal Technology Co., Ltd, with the grade of SPF, the quality control department is Beijing Vital River Laboratory Animal Technology Co., Ltd, and the certificate number was NO.110011230103807533. The mice were domesticated for 3 days after arrival, and then the study began.
NUGC-4 cells were purchased from NIBIOHN (CAT #: JCRB0834) and routinely subcultured in strict accordance with the instructions for subsequent in vivo experiments. The cells were collected by centrifugation, resuspended in sterile PBS and adjusted to a cell density of 20×10^6 cells/ml. A NUGC-4 tumor-bearing mouse model was established by subcutaneous inoculation of 0.2 ml of cell suspension into the right abdominal region of BALB/c-NUDE mice on day 0.
Tumor volume of each mouse was measured 13 days after tumor cell inoculation, the mice with tumor volumes about 200 mm^3 were selected and grouped on average according to their tumor volume (7 mice per group). […] Administrations were conducted on day 13 after inoculation respectively, and the tumor volume and body weight of mice were monitored twice a week. […] Measurement of tumor volume: the maximum long axis (L) and maximum wide axis (W) of the tumor were measured using a vernier caliper, and the tumor volume was calculated as follows: V=L×W^2/2. Body weight was measured using an electronic balance. Table 3. Experimental design

[2] = target: T1, human EGFR (human, UniProt P00533 25-645, limits assumed); experiment: ELISA, EGFR antigen coated on plate, anti-human IgG Fc-HRP detection
T1 construct: Coated at 0.25 ug/mL; also called EGFR antigen

[3] = target: T2, human HER3 (human, UniProt P21860 20-643, limits assumed); experiment: ELISA, HER3 antigen coated on plate, anti-human IgG Fc-HRP detection
T2 construct: Coated at 0.25 ug/mL; also called HER3 antigen; ErbB3

[4] = test system: human breast cancer cells MCF7; experiment: In vitro cell killing assay (CTG); format: cell-based
Description: After 2-3 passages of the resurrected MCF7 cells, the culture medium was poured out firstly, rinsed with 10 mL PBS once, then the cells were digested with 4mL trypsin, the culture medium was terminated before centrifuged at 400xg for 3min, the supernatant was discarded, and the culture medium was further resuspended for counting. The cell density was adjusted to 3E4/mL, 50 µL of which per well was added into a round bottom low adsorption 96-well plate. The antibody to be detected was diluted in a gradient manner, then 50 µL of which per well was added into the corresponding cells, cultured at 37 °C for 5 days, then the 96-well plate was taken out, the plate was balanced to room temperature, 100 µL of CTG detection solution was added into each well, placed at a shaker at 300 rpm for 20 min, 100 µL of which was absorbed and placed into the white bottom 96-well plate, and the luminescence value was detected by using a multifunctional microplate reader.

[5] = test system: human breast cancer cells MDA-MB-453; experiment: In vitro cell killing assay (CTG); format: cell-based; settings: MDA-MB-453, 5 days, Example 13

| Molecule | TGI [1] [%] | Tumor volume [1] [mm^3] | Kd [2] [nM] | fold decrease in Kd against SIB001-DXd [2] [fold] | Kd [3] [nM] | IC50 ([4]; MCF7, 5 days) [nM] | reduction in IC50 ([4]; MCF7, relative to SIB001-DXd) | killing effect [5] |
| --- | --- | --- | --- | --- | --- | --- | --- | --- |
| Patritumab-DXd [reference compound] | 51 | 636 | – | – | – | – | – | – |
| B1 | – | – | 0.0352 | ~2.5 | 0.0257 | – | – | – |
| B2 | 75 | 414 | – | – | – | 0.049 | approximately 250 fold | significantly stronger killing effect than SIB001-DXd |
